Experimental data reported in patent publication US20250295802A1, “HER3 ANTIBODY-DRUG CONJUGATE AND USE THEREOF” (DUALITY BIOLOGICS (SUZHOU) CO., LTD., priority 2022, published 2025).
Values joined by “and” are separate entries in the source; they are usually repeats but may differ in a detail not shown here. Identical values can stand only once. One block for each molecule: values may come before it.

Tests used:
cynomolgus monkey HER3 [1] = biological target: cynomolgus monkey HER3 (cynomolgus monkey, UniProt G7PIG5 20-643); assay: ELISA
Chain of cynomolgus monkey HER3 (cynomolgus monkey, UniProt G7PIG5 20-643) (G7PIG5 entry or part of it): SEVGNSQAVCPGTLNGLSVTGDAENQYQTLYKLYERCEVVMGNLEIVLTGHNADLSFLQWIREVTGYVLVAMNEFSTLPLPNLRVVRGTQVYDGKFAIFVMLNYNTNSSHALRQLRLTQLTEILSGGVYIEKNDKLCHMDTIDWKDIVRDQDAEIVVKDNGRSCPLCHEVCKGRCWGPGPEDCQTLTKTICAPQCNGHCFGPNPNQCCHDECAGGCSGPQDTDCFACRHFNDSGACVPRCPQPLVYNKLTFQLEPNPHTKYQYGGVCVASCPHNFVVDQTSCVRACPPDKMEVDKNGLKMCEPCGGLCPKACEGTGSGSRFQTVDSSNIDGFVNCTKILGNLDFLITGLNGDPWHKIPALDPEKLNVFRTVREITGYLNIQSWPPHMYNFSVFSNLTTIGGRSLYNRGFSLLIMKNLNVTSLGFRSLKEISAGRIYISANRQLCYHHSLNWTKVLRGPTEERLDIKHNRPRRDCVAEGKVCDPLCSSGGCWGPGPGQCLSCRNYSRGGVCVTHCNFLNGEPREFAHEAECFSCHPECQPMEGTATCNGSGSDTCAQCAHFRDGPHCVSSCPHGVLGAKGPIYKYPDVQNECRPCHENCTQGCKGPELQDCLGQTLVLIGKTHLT

human HER3-huFc [2] = biological target: T1, human HER3-huFc (human, UniProt P21860 20-643); assay: ELISA
T1 construct: also called huHER3; not shown: human Fc (huFc)

human HER3-huFc [3] = biological target: T1, human HER3-huFc; assay: ELISA, antigen coated
Experimental: (§1) ELISA assay: human HER2-ex-huFc, human HER3-huFc, and human EGFR-his were diluted to 2 μg/mL and 50 μL/well in a 96-well plate and incubated at 4° C. overnight. The plate was washed with 0.5×PBST, then incubated with 100 μL of a blocking buffer (PBS+3% BSA) at 37° C. for 2 h, and washed with 0.5×PBST. The 3F8 antibody was diluted with the blocking buffer in a 1:3 serial gradient, added at 50 μL/well, incubated at 37° C. for 40-50 min, and then washed with 0.5×PBST. […] Prior to assay, 50 μL of luminol buffer A+B was added to each well in a 1:1 mix.
(§2) EC50 of murine 3F8 binding to human HER3, HER2, and EGFR was analyzed using GraphPad Prism 6.0.

human HER2-ex-huFc = biological target: T2, human HER2-ex-huFc (human, UniProt P04626 23-652); assay: ELISA on coated antigen, luminescence readout
T2 construct: extracellular domain; 'ex' is read as extracellular domain; also called huHER2; not shown: human Fc (huFc)
Experimental: as §1
(§3) The binding affinities of murine 3F8 to human HER3, HER2 and EGFR were determined by ELISA.

human EGFR-his = biological target: T3, human EGFR-his (human, UniProt P00533 25-645); assay: ELISA on coated antigen, luminescence readout
T3 construct: also called huEGFR; not shown: His tag
Experimental: as §1, §3

mouse HER3 [4] = biological target: mouse HER3 (mouse, UniProt Q61526 20-641, limits assumed); assay: ELISA on coated antigen, luminescence readout
Chain of mouse HER3 (mouse, UniProt Q61526 20-641, limits assumed) (Q61526 20-641 limits assumed): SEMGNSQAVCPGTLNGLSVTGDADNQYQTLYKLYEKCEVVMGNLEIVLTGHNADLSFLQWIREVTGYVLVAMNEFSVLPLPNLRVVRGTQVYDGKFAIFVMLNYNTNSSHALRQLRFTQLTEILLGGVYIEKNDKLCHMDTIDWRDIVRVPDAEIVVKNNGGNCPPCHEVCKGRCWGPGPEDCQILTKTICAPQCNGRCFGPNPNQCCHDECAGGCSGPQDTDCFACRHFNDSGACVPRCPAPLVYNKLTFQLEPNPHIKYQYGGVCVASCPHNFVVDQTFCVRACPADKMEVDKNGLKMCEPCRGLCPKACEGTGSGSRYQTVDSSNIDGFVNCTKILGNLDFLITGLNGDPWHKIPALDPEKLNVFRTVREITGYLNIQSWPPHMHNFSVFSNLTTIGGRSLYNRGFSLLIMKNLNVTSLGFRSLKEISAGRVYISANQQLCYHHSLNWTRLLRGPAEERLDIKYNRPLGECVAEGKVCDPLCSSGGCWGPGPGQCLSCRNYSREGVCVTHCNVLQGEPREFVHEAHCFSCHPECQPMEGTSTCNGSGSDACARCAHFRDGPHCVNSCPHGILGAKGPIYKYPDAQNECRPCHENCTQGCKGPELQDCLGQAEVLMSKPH

rat HER3 [5] = biological target: rat HER3 (rat, UniProt Q62799 20-641, limits assumed); assay: ELISA on coated antigen, luminescence readout
Chain of rat HER3 (rat, UniProt Q62799 20-641, limits assumed) (Q62799 20-641 limits assumed): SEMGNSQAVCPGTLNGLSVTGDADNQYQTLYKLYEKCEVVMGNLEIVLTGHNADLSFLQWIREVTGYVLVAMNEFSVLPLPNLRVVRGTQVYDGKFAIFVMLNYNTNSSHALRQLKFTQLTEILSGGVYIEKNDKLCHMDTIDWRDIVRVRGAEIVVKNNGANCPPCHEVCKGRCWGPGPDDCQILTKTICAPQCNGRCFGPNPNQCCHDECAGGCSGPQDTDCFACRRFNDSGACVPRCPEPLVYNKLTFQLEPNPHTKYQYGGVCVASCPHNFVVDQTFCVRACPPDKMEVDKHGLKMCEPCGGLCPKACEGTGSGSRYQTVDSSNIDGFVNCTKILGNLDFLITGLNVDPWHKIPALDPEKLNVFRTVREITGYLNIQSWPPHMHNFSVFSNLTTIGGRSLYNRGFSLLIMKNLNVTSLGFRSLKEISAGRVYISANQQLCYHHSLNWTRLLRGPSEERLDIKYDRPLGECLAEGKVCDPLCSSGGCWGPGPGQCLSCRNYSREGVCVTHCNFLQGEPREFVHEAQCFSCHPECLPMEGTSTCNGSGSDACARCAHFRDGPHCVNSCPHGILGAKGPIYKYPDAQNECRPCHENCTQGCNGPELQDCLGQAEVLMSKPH

[6] = biological target: T4, human EGFR expressed on SP2/0 cells (human, UniProt P00533 25-1210); assay: flow cytometry (FACS) on SP2/0 cells overexpressing human EGFR, PE anti-mouse secondary antibody
T4 construct: whole, on cells; also called SP2/0-EGFR cells
Experimental: (§4) FACS assay: the cultured cells were digested with 0.25% trypsin-EDTA and then centrifuged at 1500 rpm for 5 min. The cell pellets were regenerated into 5×10⁶ cells/mL using a PBS FACS solution containing 5% FBS and 0.2% ProClin300. 50 μL of the cell suspension was incubated with 100 μL of the primary antibody at a concentration of 1 μg/mL on ice for 1 h. The cells were washed twice with the FACS solution. The pellets were regenerated using 100 μL of a FACS solution containing goat anti-mouse IgG-PE (1:1000 dilution) and incubated on ice in the dark for 1 h. The cells were then washed twice and resuspended in 200 μL of the FACS solution.
(§5) Murine 3F8 was co-incubated with SP2/0 wild-type cells or cells overexpressing HER3, HER2 or EGFR. The binding strength was measured in a FACS instrument with a PE-anti-mouse secondary antibody.

[7] = biological target: T5, human HER2 expressed on SP2/0 cells (human, UniProt P04626 23-1255); assay: flow cytometry (FACS) on SP2/0 cells overexpressing human HER2, PE anti-mouse secondary antibody
T5 construct: whole, on cells; also called SP2/0-HER2 cells
Experimental: as §4, §5

SP2/0-HER3 cells = biological target: T6, SP2/0-HER3 cells (Homo sapiens, UniProt P21860); assay: FACS binding of murine 3F8 to SP2/0 cells overexpressing HER3; details: PE-anti-mouse secondary antibody
T6 construct: expressed in transfected cells; host or cells: SP2/0 (mouse myeloma) stably expressing human HER3
Experimental: (§6) Cell culture: SP2/0, SP2/0-HER3, SP2/0-HER2, SP2/O-EGFR, NCI-N87, MDA-MB-468, MDA-MB-453, 7901, HT29, MCF-7, and SK-BR-3 used in the study were purchased from ATCC and cultured using the appropriate media recommended by ATCC. SP2/0-EGFR, SP2/0-HER2, and SP2/0HER3 cells stably expressing human EGFR, HER2 and HER3 were generated in house.
as §4, with “5×10^6” for “5×10⁶”
as §5

[8] = system: SP2/0 wild-type cells or cells overexpressing HER2 or EGFR; assay: FACS binding of murine 3F8 to SP2/0 wild-type, HER2 or EGFR cells; set-up: species or system human
Experimental: as §6
as §4, with “5×10^6” for “5×10⁶”
as §5

HER3 = biological target: T7, HER3 (Homo sapiens, UniProt P21860); assay: ELISA binding to human HER3
T7 construct: human Fc (huFc)
Experimental: (§7) ELISA assay: human HER2-ex-huFc, human HER3-huFc, and human EGFR-his were diluted to 2 μg/mL and 50 μL/well in a 96-well plate and incubated at 4° C. overnight. The plate was washed with 0.5×PBST, then incubated with 100 μL of a blocking buffer (PBS+3% BSA) at 37° C. for 2 h, and washed with 0.5×PBST. The 3F8 antibody was diluted with the blocking buffer in a 1:3 serial gradient, added at 50 μL/well, incubated at 37° C. for 40-50 min, and then washed with 0.5×PBST. Goat anti-mouse IgG-HRP (Southern Biotech, 1030-05) was diluted at 1:20000 with the blocking buffer, added at 50 μL/well, incubated in the dark for 30 min, and then washed with 0.5×PBST. Prior to assay, 50 μL of luminol buffer A+B was added to each well in a 1:1 mix.
as §3, §2
(§8) The species selectivity of murine 3F8 to human, monkey, rat and mouse HER3 was determined by ELISA.
(§9) EC50 of murine 3F8 binding to human, monkey, rat and mouse HER3 was analyzed using GraphPad Prism 6.0.

human HER2 = biological target: T8, human HER2 (Homo sapiens, UniProt P04626); assay: ELISA binding to human HER2
T8 construct: human HER2-ex-huFc; human Fc (huFc)
Experimental: as §7, §3, §2

human EGFR = biological target: T9, human EGFR (Homo sapiens, UniProt P00533); assay: ELISA binding to human EGFR
T9 construct: His
Experimental: as §7, §3, §2

cynomolgus monkey HER3 [9] = assay: ELISA binding to cynomolgus monkey HER3; details: Table 2
Experimental: as §7, §8, §9

mouse HER3 [10] = biological target: mouse HER3 (Mus musculus, UniProt Q61526); assay: ELISA binding to mouse HER3
Chain of mouse HER3 (Mus musculus, UniProt Q61526) (Q61526 20-1339): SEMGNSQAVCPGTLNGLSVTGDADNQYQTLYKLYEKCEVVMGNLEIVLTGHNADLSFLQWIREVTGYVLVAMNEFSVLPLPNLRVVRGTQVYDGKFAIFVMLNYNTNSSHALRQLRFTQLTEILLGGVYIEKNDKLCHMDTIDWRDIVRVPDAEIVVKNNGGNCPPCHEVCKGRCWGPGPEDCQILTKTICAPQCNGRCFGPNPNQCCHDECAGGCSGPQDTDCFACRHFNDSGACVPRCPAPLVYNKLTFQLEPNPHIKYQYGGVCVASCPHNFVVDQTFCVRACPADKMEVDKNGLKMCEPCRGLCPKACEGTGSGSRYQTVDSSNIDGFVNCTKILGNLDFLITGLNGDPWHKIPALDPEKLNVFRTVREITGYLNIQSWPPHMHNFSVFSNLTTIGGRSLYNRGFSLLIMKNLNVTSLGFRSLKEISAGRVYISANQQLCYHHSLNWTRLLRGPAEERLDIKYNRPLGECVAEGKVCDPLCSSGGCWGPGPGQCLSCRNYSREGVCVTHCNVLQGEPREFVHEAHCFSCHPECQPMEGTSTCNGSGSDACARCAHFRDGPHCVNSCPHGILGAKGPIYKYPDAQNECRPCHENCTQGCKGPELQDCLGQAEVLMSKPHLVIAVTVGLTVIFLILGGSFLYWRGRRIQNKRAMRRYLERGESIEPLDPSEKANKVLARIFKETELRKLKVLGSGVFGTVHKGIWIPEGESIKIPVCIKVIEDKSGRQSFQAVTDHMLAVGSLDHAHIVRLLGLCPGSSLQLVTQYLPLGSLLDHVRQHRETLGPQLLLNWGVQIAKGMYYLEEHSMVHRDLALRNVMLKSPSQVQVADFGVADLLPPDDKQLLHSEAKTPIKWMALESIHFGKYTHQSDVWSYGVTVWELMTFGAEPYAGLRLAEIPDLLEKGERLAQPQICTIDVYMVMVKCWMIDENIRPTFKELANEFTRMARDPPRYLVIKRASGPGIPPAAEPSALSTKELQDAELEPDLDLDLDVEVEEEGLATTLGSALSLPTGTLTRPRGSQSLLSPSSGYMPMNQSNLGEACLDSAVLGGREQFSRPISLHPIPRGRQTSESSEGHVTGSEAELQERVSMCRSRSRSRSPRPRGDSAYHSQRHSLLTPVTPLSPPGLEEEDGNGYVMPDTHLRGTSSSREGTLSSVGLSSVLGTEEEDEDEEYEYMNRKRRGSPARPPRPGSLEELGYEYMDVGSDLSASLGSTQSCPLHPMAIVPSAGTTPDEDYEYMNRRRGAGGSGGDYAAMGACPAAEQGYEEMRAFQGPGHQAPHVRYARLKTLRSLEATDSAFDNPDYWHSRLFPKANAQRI
Experimental: as §7, §8, §9

rat HER3 [11] = biological target: rat HER3 (Rattus norvegicus, UniProt Q62799); assay: ELISA binding to rat HER3
Chain of rat HER3 (Rattus norvegicus, UniProt Q62799) (Q62799 20-1339): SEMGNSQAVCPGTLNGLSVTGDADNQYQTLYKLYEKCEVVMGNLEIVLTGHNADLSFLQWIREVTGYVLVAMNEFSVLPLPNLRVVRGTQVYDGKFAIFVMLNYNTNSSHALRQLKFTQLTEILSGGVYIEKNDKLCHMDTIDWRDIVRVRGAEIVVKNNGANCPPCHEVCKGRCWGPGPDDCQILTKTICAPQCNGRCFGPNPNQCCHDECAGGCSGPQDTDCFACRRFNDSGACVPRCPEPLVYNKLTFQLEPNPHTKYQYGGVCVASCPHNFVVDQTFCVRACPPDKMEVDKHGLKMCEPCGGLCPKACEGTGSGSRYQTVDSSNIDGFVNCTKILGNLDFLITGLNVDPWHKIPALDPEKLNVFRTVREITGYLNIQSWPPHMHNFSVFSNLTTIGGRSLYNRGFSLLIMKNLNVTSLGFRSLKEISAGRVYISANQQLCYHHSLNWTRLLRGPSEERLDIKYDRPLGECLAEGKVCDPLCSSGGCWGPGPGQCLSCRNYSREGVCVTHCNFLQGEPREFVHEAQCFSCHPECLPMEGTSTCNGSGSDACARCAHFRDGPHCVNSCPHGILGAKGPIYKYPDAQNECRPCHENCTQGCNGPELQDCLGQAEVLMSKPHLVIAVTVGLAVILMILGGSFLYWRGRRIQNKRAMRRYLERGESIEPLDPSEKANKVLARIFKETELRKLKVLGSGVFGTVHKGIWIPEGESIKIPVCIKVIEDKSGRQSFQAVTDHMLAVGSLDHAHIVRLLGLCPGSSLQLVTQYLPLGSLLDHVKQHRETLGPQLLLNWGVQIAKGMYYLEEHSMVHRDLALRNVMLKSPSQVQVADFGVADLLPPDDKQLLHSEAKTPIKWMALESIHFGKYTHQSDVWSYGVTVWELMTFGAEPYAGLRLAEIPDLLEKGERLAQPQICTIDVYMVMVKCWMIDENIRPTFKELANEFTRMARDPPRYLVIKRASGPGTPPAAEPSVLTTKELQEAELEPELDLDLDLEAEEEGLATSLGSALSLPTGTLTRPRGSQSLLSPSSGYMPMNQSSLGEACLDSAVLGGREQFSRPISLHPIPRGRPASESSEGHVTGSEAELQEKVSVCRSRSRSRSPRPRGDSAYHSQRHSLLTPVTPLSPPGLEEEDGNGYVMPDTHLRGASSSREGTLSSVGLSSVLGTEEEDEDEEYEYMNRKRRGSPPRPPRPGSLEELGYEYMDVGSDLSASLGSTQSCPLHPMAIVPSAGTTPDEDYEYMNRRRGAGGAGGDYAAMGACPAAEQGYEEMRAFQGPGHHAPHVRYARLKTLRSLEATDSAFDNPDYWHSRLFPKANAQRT
Experimental: as §7, §8, §9

[12] = system: NRG1-induced HER3 phosphorylation; assay: NRG1-induced HER3 phosphorylation, western blot in NCI-N87, MDA-MB-468 and MDA-MB-453; format: cell-based
Experimental: Western blot assay: the protein separated by SDS-PAGE was transferred to a nitrocellulose membrane for Western blot. The primary antibodies used were as follows: anti-HER2 (cell signaling, Catl #: 2165S), anti-HER3 (cell signaling, Catl #: 12708), anti-p-HER3 (cell signaling, Catl #: 4791), and anti-β-actin (cell signal transduction, Catl #: 4967).
HER3 phosphorylation induced by NRG1: the cells were cultured in a 6-well plate and used for an experiment when the confluency reached 80%. On the day of the experiment, the cells were washed twice with PBS, incubated for 6 h in a serum-free medium, and then induced overnight with 10 μg/mL of the antibody. To induce HER3 phosphorylation, NRG1 was added to a working concentration of 100 ng/mL 30 min before the cells were collected for Western blot.
Murine 3F8 blocked NRG1-induced HER3 phosphorylation. NCI-N87, MDA-MB-468 and MDA-MB-453 were treated with NRG1, the HER3 ligand, to induce downstream phosphorylation of HER3.
The effect of murine 3F8 in inhibiting NRG1-induced p-HER3 was determined by western blot.

[13] = system: cells at different HER3 surface levels; assay: Internalization of murine 3F8 by cells at different HER3 surface levels; format: cell-based
Experimental: Murine 3F8 was rapidly taken up by cells at different HER3 surface levels. The cells at different HER3 surface levels were incubated with murine 3F8 on ice (control) or incubated at 37° C. for 1 or 4 h. The internalization fraction was determined by subtracting the 37° C. incubated cell surface signal from the ice incubated control.

[14] = system: BT474 subcutaneous xenograft model; assay: Tumor growth in BT474 subcutaneous xenograft model; format: in vivo, mouse; details: 25 mg/kg intravenously once every two weeks for three weeks; one-way analysis of variance p<0.05
Experimental: In vivo efficacy study: the animals were maintained and used according to the IACUC guidelines. BALC/b nude mice and NPG mice, purchased from Charles River and SPF Biotech, respectively, were housed at 25° C. in a 12-h dark/light cycle with free access to food and drink. A patient-derived xenograft (PDX) model was generated by subcutaneous implantation of cryopreserved tissue fragments. Animals were initiated with drug treat when the tumor size reached 100-200 mm^3 and were euthanized when the tumor size was 1000 mm^3. The health condition was monitored daily. Tumor size and body weight were monitored and recorded every 3 days.
The anti-HER3 antibody was effective in inhibiting tumor growth in the BT474 subcutaneous xenograft model. The anti-HER3 antibody 3F8, 3D4, or 3F8+3D4 combination was injected intravenously at 25 mg/kg once every two weeks for three weeks. Tumor size was monitored every 3-4 days. Both 3F8 and 3D4 are anti-HER3 antibodies. 3F8 is a murine antibody.

EC50 (cynomolgus monkey HER3 [1]): 0.185 nM and 0.0278 µg/mL | EC50 (human HER3-huFc [2]): 0.164 nM and 0.0245 µg/mL | EC50 (human HER3-huFc [3]): 0.11 nM and 0.0165 µg/mL | binding result [6]: no binding | binding result [7]: no binding
B1: murine 3F8 antibody (antibody, V domains shown)
VH: DVQLQESGPGLVKPSQSLSLTCSVTGYSITSAYYWNWIRQFPGDKLEWMGYISYDGRNNFNPSLKNRISITRDTSKNQFFLKLNSVTSGDTATYYCARDGDYDYFDYWGQGTTLTVSS
VL: DIQMTQTTSSLSASLGDRVTISCRASQDISNYLNWYQQKPDGTFKLLIYYTSILHSGVPSRFSGSGSGTDYSLTISNLEQEDIATYFCQQGDTLPPTFGAGTKLELK
notes: Mouse hybridoma antibody, made by hybridoma or recombinantly; also called m3F8
binding result (human HER2-ex-huFc): no binding (tested: about 10^1.2 nM (about 16 nM)) | binding result (human EGFR-his): no binding (tested: about 10^1.2 nM (about 16 nM)) | binding result (mouse HER3 [4]): no binding (tested: about 10^1.2 nM (about 15 nM)) | binding result (rat HER3 [5]): no binding (tested: about 10^1.2 nM (about 15 nM))

binding to SP2/0-HER3 cells (SP2/0-HER3 cells): specifically bound | recognition of human HER3 (HER3; ELISA): only recognized HER3 | EC50 (ng/mL) huHER3 (HER3; Table 1): 16.50 ng/mL | HillSlope huHER3 (HER3; Table 1): 1.04 | EC50 (ng/mL) Human HER3 (HER3; Table 2): 24.525 ng/mL | HillSlope Human HER3 (HER3; Table 2): 1.015 | recognition of human HER2 (human HER2): did not recognize | recognition of human EGFR (human EGFR): did not recognize | EC50 (ng/mL) Cynomolgus monkey HER3 (cynomolgus monkey HER3 [9]): 27.825 ng/mL | recognition of mouse HER3 (mouse HER3 [10]): did not recognize | recognition of rat HER3 (rat HER3 [11]): did not recognize
B2: murine 3F8: murine anti-HER3 antibody 3F8 from hybridoma; VL SEQ ID NO: 15, VH SEQ ID NO: 16 (antibody, V domains shown)
VH: B1 VH
VL: B1 VL
binding to other cells [8]: did not bind | HER2 protein level [12]: no effect | total HER3 protein level [12]: no effect | phosphorylation level of HER3 protein ([12]; NRG1 100 ng/mL, antibody 10 μg/mL): reduced the phosphorylation level | time within which most was taken up ([13]; 37° C.): ≤ 1 h | internalization into the cell ([13]; 37° C. for 1 or 4 h vs ice control): rapidly internalized | tumor growth [14]: significantly inhibited the tumor growth
